System: E. coli DH1 ΔacrAB
Experiment: Survival test of heterologous efflux pump library in 1-hexene saturated atmosphere
Type: cell-based
Settings: FIG. 7
Procedure: FIG. 7: Impact of homologous pumps on growth in presence of 1-hexene. Survival test of E. coli DH1 ΔacrAB producing either the AcrAB wild type or AcrAB homologs in a 1-hexene saturated atmosphere was performed. One dilution of cultures (10^6 cells) was spotted on agar plate. […] From left to right and from top to bottom of the picture, are culture of strains producing the pumps A. vinelandii (YP_002797425), A. vinelandii (MexF), A. vinelandii (YP_002801502), P. putida (TtgB), P. putida (NP_745594), P. putida (MexF), P. putida (NP_743067), P. aeruginosa (MexB), P. aeruginosa (NP_250708), P. aeruginosa (MexF), P. aeruginosa (NP_253065), P. fluorescens (YP_258460), P. fluorescens (YP_260376), P. fluorescens (YP_258159), P. fluorescens (YP_258289), R. metallidurans (YP_586997), R. melallidurans (YP_583276), R. metallidurans (YP_583852), M. aqueolei (YP_960752), M. aqueolei (YP_957870), P. syringae (YP_276144), P. syringae (YP_275089), P. syringae (MdtB), P. syringae (YP_273025), P. syringae (YP_273463), P. syringae (YP_272632), G. metallireducens (YP_383777), G. metallireducens (YP_384620), G. metallireducens (YP_385464), G. metallireducens (YP_384608), G. metallireducens (YP_386066), B. pertussis (NP_880739), D. vulgaris (YP_009662), S. putrefaciens (YP_001181626), A. borkumensis (YP_692684), B. borkumensis (YP_694242), P. haloplanktis (AcrB), S. halifaxensis (YP_001672433), S. halifaxensis (YP_001673423), S. halifaxensis (YP_001674385), E. coli (AcrEF), E. coli (AcrAB), E. coli (AcrD).
An existing library of heterologous efflux pumps in E. coli (Dunlop et al. 2011) was used to test if another pump may provide better tolerance to 1-hexene than the native E. coli AcrAB-TolC system. Using the agar plate-based method, this strain library constructed in a DH1 ΔacrAB background was tested and the survival compared in presence of 1-hexene relative to the strain expressing an equivalent plasmid-borne copy of the native acrAB genes.
To test the heterologous efflux pump library, the same method was used. […]

B1: Pseudomonas putida KT2440: heterologous RND efflux pump, AcrB homolog from Pseudomonas putida KT2440 (protein, listed as Pseudomonas putida)
chain: MSKFFIDRPIFAWVIALVIMLVGALSILKLPINQYPSIAPPAIAIAVTYPGASAQTVQDTVVQVIEQQLNGIDNLRYVSSESNSDGSMTITATFEQGTNPDTAQVQVQNKLNLATPLLPQEVQQQGIRVTKAVKNFLLVIGLVSEDGSMTKDDLANYIVSNMQDPISRTAGVGDFQVFGAQYAMRIWLDPAKLNKFQLTPVDVKTAVAAQNVQVSSGQLGGLPALPGTQLNATIIGKTRLQTAEQFESILLKVNKDGSQVRLGDVAQVGLGGENYAVSAQFNGKPASGLAVKLATGANALDTAKALRETIKGLEPFFPPGVKAVFPYDTTPVVTESISGVIHTLIEAVVLVFLVMYLFLQNFRATIITTMTVPVVLLGTFGILAAAGFSINTLTMFAMVLAIGLLVDDAIVVVENVERVMSEEGLPPKEATKRSMEQIQGALVGIALVLSAVLLPMAFFGGSTGVIYRQFSITIVSAMGLSVLVALIFTPALCATMLKPLKKGEHHTAKGGFFGWFNRNFDRSVNGYERSVGAILRNKVPFLLAYALIVVGMIWLFARIPTAFLPEEDQGVLFAQVQTPAGSSAERTQVVVDQMREYLLKDEADTVSSVFTVNGFNFAGRGQSSGMAFIMLKPWDERSKENSVFALAQRAQQHFFTFRDAMVFAFAPPAVLELGNATGFDVFLQDRGGVGHEKLMEARNQFLAKAAQSKILSAVRPNGLNDEPQYQLTIDDERASALGVTIADINNTLSIALGASYVNDFIDRGRVKKVYIQGEPSARMSPEDLQKWYVRNGAGEMVPFSSFAKGEWTYGSPKLSRYNGVEAMEILGAPAPGYSTGEAMAEVERIAGELPSGIGFSWTGMSYEEKLSGSQMPALFALSVLFVFLCLAALYESWSIPIAVVLVVPLGIIGALIATSLRGLSNDVYFLVGLLTTIGLAAKNAILIVEFAKELHEQGRSLYDAAIEACRMRLRPIIMTSLAFILGVVPLTIASGAGAGSQHAIGTGVIGGMISATVLAIFWVPLFFVAVSSLFGSKEPEKDVTPENPRYEAGQ
- tolerance to 1-hexene relative to the native E. coli acrAB-expressing strain: equivalent tolerance

B2: Marinobacter aqueolei EPL: heterologous RND efflux pump, AcrB homolog from Marinobacter aqueolei EPL (protein, listed as Marinobacter aqueolei)
chain: MPRFFIERPIFAWVVALMLMLGGGLAVKNLAVNQFPDVAPPAIALSVNYPGASAQTVQDTVVQVIEQQLNGLDGLRYISSESNSDGSMTIIATFEQGTDPDIAQVQVQNKLQLANPLLPEEVQRQGIRVSKYKVNFFTVFALTSPDGKYTQGDLADYIVSNIQDPVARTQGVGDFLLFGSQYAMRLWLDPEKLNSYQLTPQDVINSVRAQNVQVSAGQLGGLPTAEGVQLQATVIGKQRMKTAEEFENILLKVNPDGSQVRLADVAEVNLGNENYATTGKYNGAPAAGMALRLATGANQLETAGRVKETLAELERFLPEGVEIVFPYDTTPVVSASIETVAMTLIEAVVLVFLVMFLFLQSWRATIIPTLAVPVVLLATFGVLYAFGFTVNVMTMFAMVLAIGLLVDDAIVVVENVERLMEEEGLSPKEAAKKSMDQISGALLGIGLVISAVFLPMAFFGGSTGVIYRQFSVTIISAMSFSVLVAFIFTPALCATLLKPGDQHVRKGFFGWFNRTFDRSADRYKSGVSYLIKRKGRFMGVYLLLVVAVGFLFKGLPTAFLPDEDQGVMIVMVQLPTNATGERTEAVLAEAGNYLLEEESEVVKSVMSVRGFNFAGRGQNSGILFVDLKPFADRESFAQSVFALAGRSGARFAQIKDAIVFPIVPPAILELGNATGFDLYLKDNGAIGHHALMAATNEFISRANAAPELNMVRHNGLPDEPQYQVIIDDEKARLLQVSIADINATMSAAWGSSYVNDFLHNGRVKKVYVQGKPDSRLAPEDFDKWFVRNAQGEMVPFAAFATGEWVFGSPRLQRYQGLPATQIQGAPANGYSTGDAMAALERIAADLPQGLGLEYTGLSFEEKQAGNQAMMLYLLSILVVFLCLAALYESWSIPFAVIMLVPLGVLGAVLATMARGLSNDVFFQVGMLTTMGLAAKNAILIVEFARQLYEQEGKPLLQATAEAARLRLRPIIMTSLAFIFGVLPMAIASGASSASQHAIGTAVVGGTLAATILAIFFVPLFYVFVVGLTGKRKSADD
- tolerance to 1-hexene relative to the native E. coli acrAB-expressing strain: equivalent tolerance
